The source of these data is article PMC10786891, “Massively parallel profiling of RNA-targeting CRISPR-Cas13d”.

T1: EsCas13d, nuclease-dead (Eubacterium siraeum, UniProt B0MS50, R295A;H300A;R849A;H854A)
T1 sequence: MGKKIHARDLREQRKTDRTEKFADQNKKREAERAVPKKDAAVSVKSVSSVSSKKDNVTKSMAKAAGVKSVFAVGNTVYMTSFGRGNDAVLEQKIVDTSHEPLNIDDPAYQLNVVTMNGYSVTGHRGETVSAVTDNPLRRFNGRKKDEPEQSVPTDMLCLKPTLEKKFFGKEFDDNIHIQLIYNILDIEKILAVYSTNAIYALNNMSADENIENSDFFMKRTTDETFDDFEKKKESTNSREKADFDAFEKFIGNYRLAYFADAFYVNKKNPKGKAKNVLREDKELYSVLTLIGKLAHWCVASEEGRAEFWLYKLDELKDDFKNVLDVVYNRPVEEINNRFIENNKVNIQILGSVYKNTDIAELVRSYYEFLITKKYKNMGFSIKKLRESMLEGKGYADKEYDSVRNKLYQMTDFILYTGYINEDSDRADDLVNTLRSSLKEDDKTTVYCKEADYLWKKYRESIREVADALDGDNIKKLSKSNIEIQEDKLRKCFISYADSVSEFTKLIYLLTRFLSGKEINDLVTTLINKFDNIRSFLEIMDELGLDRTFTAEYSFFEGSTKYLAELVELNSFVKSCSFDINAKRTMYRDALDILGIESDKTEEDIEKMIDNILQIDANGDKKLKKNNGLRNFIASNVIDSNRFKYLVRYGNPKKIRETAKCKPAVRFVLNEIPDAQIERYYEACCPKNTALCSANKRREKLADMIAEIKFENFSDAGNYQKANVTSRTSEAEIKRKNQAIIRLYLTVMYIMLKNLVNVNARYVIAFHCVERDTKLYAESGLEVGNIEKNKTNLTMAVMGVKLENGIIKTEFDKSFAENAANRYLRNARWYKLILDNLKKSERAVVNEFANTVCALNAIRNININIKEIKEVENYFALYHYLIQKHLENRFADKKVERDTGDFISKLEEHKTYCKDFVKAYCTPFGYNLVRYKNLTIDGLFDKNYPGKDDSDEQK

B1: target 1 C6G,U19A (mixed)
RNA 1: CACCCGUGCAAAAAUGCAGGGGUCUAAAACUGAGCGGAUAACCUCUCUAUGG
RNA 2: GGGAAUGGAUCCACAUCUACGAAUUCGUACCAAAGAGAGGUUAUCGGCUCACCGAGAUCGGAAGAGCACACGU
B2: target 1 insC 3' of 22,insA 3' of 11 (mixed)
RNA 1: CACCCGUGCAAAAAUGCAGGGGUCUAAAACUGAGCGGAUAACCUCUCUAUGG
RNA 2: GGGAAUGGAUCCACAUCUACGAAUUCGUACCCAUAGAGAGGUAUAUCCGCUCACCGAGAUCGGAAGAGCACACGU
B3: target 1 U8G,C21U (mixed)
RNA 1: CACCCGUGCAAAAAUGCAGGGGUCUAAAACUGAGCGGAUAACCUCUCUAUGG
RNA 2: GGGAAUGGAUCCACAUCUACGAAUUCGUACUAUAGAGAGGUUAGCCGCUCACCGAGAUCGGAAGAGCACACGU
B4: target 1 U3C,G13C (mixed)
RNA 1: CACCCGUGCAAAAAUGCAGGGGUCUAAAACUGAGCGGAUAACCUCUCUAUGG
RNA 2: GGGAAUGGAUCCACAUCUACGAAUUCGUACCAUAGAGACGUUAUCCGCCCACCGAGAUCGGAAGAGCACACGU
B5: target 1 insC 3' of 5,insA 3' of 3 (mixed)
RNA 1: CACCCGUGCAAAAAUGCAGGGGUCUAAAACUGAGCGGAUAACCUCUCUAUGG
RNA 2: GGGAAUGGAUCCACAUCUACGAAUUCGUACCAUAGAGAGGUUAUCCGCCUACACCGAGAUCGGAAGAGCACACGU
B6: target 1 insA 3' of 12,insG 3' of 7 (mixed)
RNA 1: CACCCGUGCAAAAAUGCAGGGGUCUAAAACUGAGCGGAUAACCUCUCUAUGG
RNA 2: GGGAAUGGAUCCACAUCUACGAAUUCGUACCAUAGAGAGGAUUAUCGCGCUCACCGAGAUCGGAAGAGCACACGU
B7: target 1 insU 3' of 13,insA 3' of 11 (mixed)
RNA 1: CACCCGUGCAAAAAUGCAGGGGUCUAAAACUGAGCGGAUAACCUCUCUAUGG
RNA 2: GGGAAUGGAUCCACAUCUACGAAUUCGUACCAUAGAGAGUGUAUAUCCGCUCACCGAGAUCGGAAGAGCACACGU
B8: target 1 insU 3' of 21,insA 3' of 13 (mixed)
RNA 1: CACCCGUGCAAAAAUGCAGGGGUCUAAAACUGAGCGGAUAACCUCUCUAUGG
RNA 2: GGGAAUGGAUCCACAUCUACGAAUUCGUACCUAUAGAGAGAGUUAUCCGCUCACCGAGAUCGGAAGAGCACACGU
B9: target 1 U11A,G13C (mixed)
RNA 1: CACCCGUGCAAAAAUGCAGGGGUCUAAAACUGAGCGGAUAACCUCUCUAUGG
RNA 2: GGGAAUGGAUCCACAUCUACGAAUUCGUACCAUAGAGACGAUAUCCGCUCACCGAGAUCGGAAGAGCACACGU
B10: target 1 insC 3' of 13,insA 3' of 5 (mixed)
RNA 1: CACCCGUGCAAAAAUGCAGGGGUCUAAAACUGAGCGGAUAACCUCUCUAUGG
RNA 2: GGGAAUGGAUCCACAUCUACGAAUUCGUACCAUAGAGAGCGUUAUCCGACUCACCGAGAUCGGAAGAGCACACGU
B11: target 1 U8A,G12A (mixed)
RNA 1: CACCCGUGCAAAAAUGCAGGGGUCUAAAACUGAGCGGAUAACCUCUCUAUGG
RNA 2: GGGAAUGGAUCCACAUCUACGAAUUCGUACCAUAGAGAGAUUAACCGCUCACCGAGAUCGGAAGAGCACACGU
B12: target 1 insA 3' of 11,insC 3' of 5 (mixed)
RNA 1: CACCCGUGCAAAAAUGCAGGGGUCUAAAACUGAGCGGAUAACCUCUCUAUGG
RNA 2: GGGAAUGGAUCCACAUCUACGAAUUCGUACCAUAGAGAGGUAUAUCCGCCUCACCGAGAUCGGAAGAGCACACGU
B13: target 1 insA 3' of 22,insC 3' of 16 (mixed)
RNA 1: CACCCGUGCAAAAAUGCAGGGGUCUAAAACUGAGCGGAUAACCUCUCUAUGG
RNA 2: GGGAAUGGAUCCACAUCUACGAAUUCGUACACAUAGACGAGGUUAUCCGCUCACCGAGAUCGGAAGAGCACACGU
B14: target 1 insC 3' of 8,insA 3' of 4 (mixed)
RNA 1: CACCCGUGCAAAAAUGCAGGGGUCUAAAACUGAGCGGAUAACCUCUCUAUGG
RNA 2: GGGAAUGGAUCCACAUCUACGAAUUCGUACCAUAGAGAGGUUAUCCCGCAUCACCGAGAUCGGAAGAGCACACGU
B15: target 1 C2G,U8G (mixed)
RNA 1: CACCCGUGCAAAAAUGCAGGGGUCUAAAACUGAGCGGAUAACCUCUCUAUGG
RNA 2: GGGAAUGGAUCCACAUCUACGAAUUCGUACCAUAGAGAGGUUAGCCGCUGACCGAGAUCGGAAGAGCACACGU
B16: target 1 insA 3' of 19,insU 3' of 7 (mixed)
RNA 1: CACCCGUGCAAAAAUGCAGGGGUCUAAAACUGAGCGGAUAACCUCUCUAUGG
RNA 2: GGGAAUGGAUCCACAUCUACGAAUUCGUACCAUAAGAGAGGUUAUCUCGCUCACCGAGAUCGGAAGAGCACACGU
B17: target 1 del22 (mixed)
RNA 1: CACCCGUGCAAAAAUGCAGGGGUCUAAAACUGAGCGGAUAACCUCUCUAUGG
RNA 2: GGGAAUGGAUCCACAUCUACGAAUUCGUACAUAGAGAGGUUAUCCGCUCACCGAGAUCGGAAGAGCACACGU
B18: target 1 C6U,A16C (mixed)
RNA 1: CACCCGUGCAAAAAUGCAGGGGUCUAAAACUGAGCGGAUAACCUCUCUAUGG
RNA 2: GGGAAUGGAUCCACAUCUACGAAUUCGUACCAUAGCGAGGUUAUCUGCUCACCGAGAUCGGAAGAGCACACGU
B19: target 1 insC 3' of 20,insC 3' of 12 (mixed)
RNA 1: CACCCGUGCAAAAAUGCAGGGGUCUAAAACUGAGCGGAUAACCUCUCUAUGG
RNA 2: GGGAAUGGAUCCACAUCUACGAAUUCGUACCACUAGAGAGGCUUAUCCGCUCACCGAGAUCGGAAGAGCACACGU
B20: target 1 complement block 3-10 (mixed)
RNA 1: CACCCGUGCAAAAAUGCAGGGGUCUAAAACUGAGCGGAUAACCUCUCUAUGG
RNA 2: GGGAAUGGAUCCACAUCUACGAAUUCGUACCAUAGAGAGGUAUAGGCGACACCGAGAUCGGAAGAGCACACGU
B21: target 1 C6A,C21U (mixed)
RNA 1: CACCCGUGCAAAAAUGCAGGGGUCUAAAACUGAGCGGAUAACCUCUCUAUGG
RNA 2: GGGAAUGGAUCCACAUCUACGAAUUCGUACUAUAGAGAGGUUAUCAGCUCACCGAGAUCGGAAGAGCACACGU
B22: target 1 C4U,G12C (mixed)
RNA 1: CACCCGUGCAAAAAUGCAGGGGUCUAAAACUGAGCGGAUAACCUCUCUAUGG
RNA 2: GGGAAUGGAUCCACAUCUACGAAUUCGUACCAUAGAGAGCUUAUCCGUUCACCGAGAUCGGAAGAGCACACGU
B23: target 1 insA 3' of 12,insU 3' of 5 (mixed)
RNA 1: CACCCGUGCAAAAAUGCAGGGGUCUAAAACUGAGCGGAUAACCUCUCUAUGG
RNA 2: GGGAAUGGAUCCACAUCUACGAAUUCGUACCAUAGAGAGGAUUAUCCGUCUCACCGAGAUCGGAAGAGCACACGU
B24: target 1 C6G,A14G (mixed)
RNA 1: CACCCGUGCAAAAAUGCAGGGGUCUAAAACUGAGCGGAUAACCUCUCUAUGG
RNA 2: GGGAAUGGAUCCACAUCUACGAAUUCGUACCAUAGAGGGGUUAUCGGCUCACCGAGAUCGGAAGAGCACACGU
B25: target 1 G12U,A14U (mixed)
RNA 1: CACCCGUGCAAAAAUGCAGGGGUCUAAAACUGAGCGGAUAACCUCUCUAUGG
RNA 2: GGGAAUGGAUCCACAUCUACGAAUUCGUACCAUAGAGUGUUUAUCCGCUCACCGAGAUCGGAAGAGCACACGU
B26: target 1 U10G,G12C (mixed)
RNA 1: CACCCGUGCAAAAAUGCAGGGGUCUAAAACUGAGCGGAUAACCUCUCUAUGG
RNA 2: GGGAAUGGAUCCACAUCUACGAAUUCGUACCAUAGAGAGCUGAUCCGCUCACCGAGAUCGGAAGAGCACACGU
B27: target 1 insG 3' of 9,insU 3' of 5 (mixed)
RNA 1: CACCCGUGCAAAAAUGCAGGGGUCUAAAACUGAGCGGAUAACCUCUCUAUGG
RNA 2: GGGAAUGGAUCCACAUCUACGAAUUCGUACCAUAGAGAGGUUAGUCCGUCUCACCGAGAUCGGAAGAGCACACGU

The data set addresses T1, EsCas13d, nuclease-dead. The experiment in a line: crRNA (strand 1, pre-loaded); Mg2+; 40 mM Tris-HCl pH 7.5, 150 mM NaCl, 6 mM MgCl2, 1 mM DTT, 0.1% Tween-20, 0.2 mg/ml BSA; 25 C; 10 min per concentration, then washed. The note with it: tags: His6-TwinStrep-SUMO cleaved; N-terminal SNAP kept (SNAP-Surface 488); label: 3' end held by stalled T7 RNA polymerase.
In general, Kd refers to the concentration at which binding is half-saturated. Higher therefore signals a looser complex. Molecule B1 had a Kd of 35 ± 5 nM.
The figure for B2 is 33 ± 5 nM; for B3 it is 8.34 ± 0.26 nM; for B4 it is 36 ± 4 nM.
The molecule B5 gave a Kd of 30 ± 4 nM.
The result for B6 reads 27.7 ± 2 nM; that for B7, 12.3 ± 1.4 nM.
The figure for B8 is 21.3 ± 1.3 nM; for B9 it is 42 ± 7 nM.
The figure for B10 is 6.7 ± 1.3 nM; for B11 it is 8.6 ± 0.8 nM.
B12 registered a Kd of 12.7 ± 1.2 nM.
The result for B13 reads roughly 60 nM; that for B14, 12 ± 0.9 nM; that for B15, 17.4 ± 0.8 nM.
The figure for B16 is 41.8 ± 2.3 nM.
The figure for B17 is 26.6 ± 1.7 nM; for B18 it is 40 ± 5 nM.
On to B19, for which the Kd was 11.9 ± 2.4 nM.
B20 had a Kd of 12.2 ± 0.34 nM.
B21 showed a Kd of 6.48 ± 0.21 nM.
With B22, the equilibrium dissociation constant (Kd) worked out at 22.4 ± 3.3 nM.
B23: the Kd was found to be 35.4 ± 2.8 nM.
The result for B24 reads 13.5 ± 1.3 nM; that for B25, 25 ± 9 nM.
For the molecule B26, the Kd came to 22.7 ± 1.3 nM.
As to B27, the Kd amounted to 14.4 ± 0.9 nM.
